From IntAct's records for PubMed 24944246

B1: Krueppel-like factor 10 (Homo sapiens), Q13118 (parent)
chain: MLNFGASLQQTAEERMEMISERPKESMYSWNKTAEKSDFEAVEALMSMSCSWKSDFKKYVENRPVTPVSDLSEEENLLPGTPDFHTIPAFCLTPPYSPSDFEPSQVSNLMAPAPSTVHFKSLSDTAKPHIAAPFKEEEKSPVSAPKLPKAQATSVIRHTADAQLCNHQTCPMKAASILNYQNNSFRRRTHLNVEAARKNIPCAAVSPNRSKCERNTVADVDEKASAALYDFSVPSSETVICRSQPAPVSPQQKSVLVSPPAVSAGGVPPMPVICQMVPLPANNPVVTTVVPSTPPSQPPAVCPPVVFMGTQVPKGAVMFVVPQPVVQSSKPPVVSPNGTRLSPIAPAPGFSPSAAKVTPQIDSSRIRSHICSHPGCGKTYFKSSHLKAHTRTHTGEKPFSCSWKGCERRFARSDELSRHRRTHTGEKKFACPMCDRRFMRSDHLTKHARRHLSAKKLPNWQMEVSKLNDIALPPTPAPTQ
partner: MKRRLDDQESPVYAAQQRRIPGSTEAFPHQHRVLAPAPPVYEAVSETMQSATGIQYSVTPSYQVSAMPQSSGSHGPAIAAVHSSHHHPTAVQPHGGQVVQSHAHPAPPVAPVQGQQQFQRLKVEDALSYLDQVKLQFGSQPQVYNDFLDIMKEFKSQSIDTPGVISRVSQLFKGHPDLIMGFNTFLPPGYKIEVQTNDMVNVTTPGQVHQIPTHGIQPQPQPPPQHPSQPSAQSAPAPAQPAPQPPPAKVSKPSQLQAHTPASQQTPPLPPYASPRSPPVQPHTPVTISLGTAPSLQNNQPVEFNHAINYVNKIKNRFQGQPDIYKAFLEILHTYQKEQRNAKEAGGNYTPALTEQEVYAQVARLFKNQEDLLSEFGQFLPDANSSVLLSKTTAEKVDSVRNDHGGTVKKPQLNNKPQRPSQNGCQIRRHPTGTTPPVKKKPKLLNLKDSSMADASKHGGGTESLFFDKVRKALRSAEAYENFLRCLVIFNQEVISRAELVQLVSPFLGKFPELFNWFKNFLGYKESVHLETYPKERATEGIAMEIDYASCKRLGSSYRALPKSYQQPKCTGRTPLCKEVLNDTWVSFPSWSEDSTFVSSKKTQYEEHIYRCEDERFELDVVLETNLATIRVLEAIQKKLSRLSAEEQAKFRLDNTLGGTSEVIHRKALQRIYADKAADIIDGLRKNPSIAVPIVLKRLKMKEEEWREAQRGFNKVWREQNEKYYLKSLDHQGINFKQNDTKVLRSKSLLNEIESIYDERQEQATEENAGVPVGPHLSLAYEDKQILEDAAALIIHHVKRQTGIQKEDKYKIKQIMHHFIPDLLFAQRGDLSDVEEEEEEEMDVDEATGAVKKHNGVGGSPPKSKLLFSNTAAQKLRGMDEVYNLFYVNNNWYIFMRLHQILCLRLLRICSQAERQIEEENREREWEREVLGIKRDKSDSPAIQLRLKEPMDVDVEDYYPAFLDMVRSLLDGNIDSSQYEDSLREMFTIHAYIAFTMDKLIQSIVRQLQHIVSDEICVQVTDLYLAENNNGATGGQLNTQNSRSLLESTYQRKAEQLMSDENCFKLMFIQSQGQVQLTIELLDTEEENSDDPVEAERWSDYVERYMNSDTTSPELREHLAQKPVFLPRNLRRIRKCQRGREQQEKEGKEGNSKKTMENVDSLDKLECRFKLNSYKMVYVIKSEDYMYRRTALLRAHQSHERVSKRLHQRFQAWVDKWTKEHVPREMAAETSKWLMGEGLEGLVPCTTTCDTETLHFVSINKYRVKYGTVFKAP

Variants of: B1
Conditions: with sin3a_human SIN3A

effect of a mutation on the interaction	Variant
disrupting interaction strength	E40P;A41P
